Assay results reported in patent US20250092146A1, “ANTI-CCR8 ANTIBODIES, CONJUGATES, AND USES THEREOF” (Abilita Bio, Inc., priority 2023, published 2025).
Numbering of substitutions follows the chain as printed. Names may count otherwise.

B1: VHH-1.3-3: VHH-1.3 variant I39Y, G40S, R55W, SEQ ID NO: 188; tested as Fc fusion (protein)
VHH: EVQLVESGGGLVQPGGSLRLSCAASGSTSSIRRYSWYRQAPGKGRELVAWFSSGGGTNYADSVKGRFTISGDNSKNTMYLQMNSLRAEDTAVYYCSARRLLGTSRVDYWGQGTQVTVSS
B2: VHH-1.3-20: VHH-1.3 variant A25V, R38G, S57I, R108I, SEQ ID NO: 205; tested as Fc fusion (protein)
VHH: B1 VHH with A24V, R33G, Y34I, S35G, W50R, S52I, R99I
B3: VHH-1.3-12: VHH-1.3 variant S28F, G64T, L110Y, SEQ ID NO: 197; tested as Fc fusion (protein)
VHH: B1 VHH with S27F, Y34I, S35G, W50R, G56T, L101Y
B4: VHH-1.3-14: VHH-1.3 variant G64S, L110V, SEQ ID NO: 199; tested as Fc fusion (protein)
VHH: B1 VHH with Y34I, S35G, W50R, G56S, T57I, L101V
B5: VHH-1.3-13: VHH-1.3 variant A25V, R38G, S57I, SEQ ID NO: 198; tested as Fc fusion (protein)
VHH: B1 VHH with A24V, R33G, Y34I, S35G, W50R, S52I
B6: VHH-1.3-19: VHH-1.3 variant A25V, R38G, R55H, N83K, SEQ ID NO: 204; tested as Fc fusion (protein)
VHH: B1 VHH with A24V, R33G, Y34I, S35G, W50H, N73K
B7: VHH-1.3-1: VHH-1.3 variant G64S, SEQ ID NO: 186; tested as Fc fusion (protein)
VHH: B1 VHH with Y34I, S35G, W50R, G56S, Q114T
B8: VHH-1.3-7: VHH-1.3 variant A25V, R55H, N82K, SEQ ID NO: 192; tested as Fc fusion (protein)
VHH: B1 VHH with A24V, Y34I, S35G, W50H, N73K, Q114T
B9: VHH-1.3-6: VHH-1.3 variant R55H, SEQ ID NO: 191; tested as Fc fusion (protein)
VHH: B1 VHH with Y34I, S35G, W50H, Q114T
B10: VHH-1.3-5: VHH-1.3 variant R55G, SEQ ID NO: 190; tested as Fc fusion (protein)
VHH: B1 VHH with Y34I, S35G, W50G, Q114T
B11: VHH-1.3-11: VHH-1.3 variant G64T, SEQ ID NO: 196; tested as Fc fusion (protein)
VHH: B1 VHH with E1Q, V5Q, Y34I, S35G, W50R, G56T, T57I
B12: VHH-1.3-17: VHH-1.3 variant R37V, R55H, R108I, N83K, SEQ ID NO: 202; tested as Fc fusion (protein)
VHH: B1 VHH with A24V, R32V, Y34I, S35G, W50H, N73K, R99I, Q114T
B13: VHH-1.3-21: VHH-1.3 variant A25V, R38G, S57I, G81A, SEQ ID NO: 206; tested as Fc fusion (protein)
VHH: B1 VHH with A24V, R33G, Y34I, S35G, W50R, S52I, G71A
B14: VHH-1.3-18: VHH-1.3 variant A25V, R38G, S57I, N83K, SEQ ID NO: 203; tested as Fc fusion (protein)
VHH: B1 VHH with A24V, R33G, Y34I, S35G, W50R, S52I, N73K, Q114T
B15: VHH-1.3-15: VHH-1.3 variant S58G, SEQ ID NO: 200; tested as Fc fusion (protein)
VHH: B1 VHH with Y34I, S35G, W50R, S53G, Q114T
B16: VHH-1.3-4: VHH-1.3 variant R38T, R108I, SEQ ID NO: 189; tested as Fc fusion (protein)
VHH: B1 VHH with R33T, Y34I, S35G, W50R, R99I, Q114T
B17: VHH-1.3-16: VHH-1.3 variant S35T, R37V, G64S, R108I, SEQ ID NO: 201; tested as Fc fusion (protein)
VHH: B1 VHH with S30T, R32V, Y34I, S35G, W50R, G56S, R99I, Q114T
B18: VHH-1.3-10: VHH-1.3 variant T65I, L110V, SEQ ID NO: 195; tested as Fc fusion (protein)
VHH: B1 VHH with E1Q, V5Q, Y34I, S35G, W50R, T57I, L101V
B19: VHH-1.3-2: VHH-1.3 variant L110V, SEQ ID NO: 187; tested as Fc fusion (protein)
VHH: B1 VHH with Y34I, S35G, W50R, L101V, Q114T
B20: VHH-2.3-1: VHH-2.3 variant D81G, SEQ ID NO: 207; tested as Fc fusion (protein)
VHH: EVQLVESGGGLVQPGGSLRLSCAVSGSTSTINRFAWYRQAPGKGRELVAATSSRTSPNYADSVKGRFTFSRGNSKNTVYLQMNSLRAEDTAVYYCQARMAMGSSQVVYWGQGTTVTVSS
B21: VHH-2.3-3: VHH-2.3 variant P65L, SEQ ID NO: 209; tested as Fc fusion (protein)
VHH: B20 VHH with P57L, G72D
B22: VHH-2.3-2: VHH-2.3 variant D81G, M108K, SEQ ID NO: 208; tested as Fc fusion (protein)
VHH: B20 VHH with M99K

Target: T1, HuT-78 cells that naturally express human CCR8 (Homo sapiens, UniProt P51685)
T1 construct: HuT-78 cells that naturally express human CCR8 were used as target cells; endogenous in cells; host or cells: HuT-78
Assay: Flow cytometry binding of yeast-display optimized VHH-Fc antibodies to HuT-78 cells
Conditions: Table 13; for EC50: clones tested as VHH-Fc fusions (human IgG1 Fc), HuT-78 cells; for Normalized Bmax (%): normalized to VHH-1 or VHH-2 depending on clone family
Source text: Top VHH sequences were chosen from the FACS sorted populations based on an analysis of improved binding performance relative to the parental sequences and evidence of sequence enrichment by NGS. Candidate VHH were then cloned as VHH-Fc fusions to the short hinge of the IgG1 Fc domain (SEQ ID NO: 34), expressed in HEK293 cells as described earlier and purified for binding evaluation. Bmax values are shown as normalized to VHH-1 or VHH-2 depending on the clone family. […] Mutations are referenced by position according to the IMGT definition.

T1 sequence (P51685 whole entry): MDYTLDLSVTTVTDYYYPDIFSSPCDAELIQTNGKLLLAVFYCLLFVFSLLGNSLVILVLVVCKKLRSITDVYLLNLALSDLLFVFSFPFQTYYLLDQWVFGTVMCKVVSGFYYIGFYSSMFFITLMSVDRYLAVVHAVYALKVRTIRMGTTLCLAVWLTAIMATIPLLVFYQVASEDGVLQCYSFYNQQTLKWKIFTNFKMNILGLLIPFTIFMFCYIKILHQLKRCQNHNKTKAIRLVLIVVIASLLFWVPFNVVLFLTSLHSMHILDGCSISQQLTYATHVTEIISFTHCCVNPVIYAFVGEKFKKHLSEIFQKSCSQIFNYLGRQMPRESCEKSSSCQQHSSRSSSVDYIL

| Molecule | EC50 [nM] | Normalized Bmax (%) |
| --- | --- | --- |
| B1 | 1.81 | 104.4 |
| B2 | 0.49 | 107.6 |
| B3 | 1.24 | 79.6 |
| B4 | 0.9 | 131.9 |
| B5 | 0.38 | 91.1 |
| B6 | 0.45 | 130.0 |
| B7 | 2.03 | 85.3 |
| B8 | 0.56 | 111.8 |
| B9 | 3.75 | 97.0 |
| B10 | 4.42 | 90.1 |
| B11 | 0.61 | 79.6 |
| B12 | 0.67 | 72.8 |
| B13 | 1.62 | 133.9 |
| B14 | 0.31 | 113.4 |
| B15 | 2.82 | 107.1 |
| B16 | 7.68 | 82.4 |
| B17 | 3.1 | 79.0 |
| B18 | 1.3 | 125.4 |
| B19 | 2.21 | 115.7 |
| B20 | 0.23 | 118.3 |
| B21 | 1.7 | 83.3 |
| B22 | 0.12 | 131.9 |
